Patent publication US5637682, “High-affinity oligonucleotide ligands to the tachykinin substance P” (NeXstar Pharmaceuticals, Inc.)
Where two headings read alike, the source gives them in different places.

T1: Substance P (SP) (UniProt P20366)
T1 sequence: RPKPQQFFGLM

T2: Substance P (SP) (UniProt P20366)
T2 chain: RPKPQQFFGLM

T3: Reverse-orientation substance P (rSP)
T3 chain: CMLGFFQQPKPR

T4: Substance P fragment 2-11
T4 chain: PKPQQFFGLM

B1: Ligand A13 (ssRNA)
RNA: GGGAGCUCAGAAUAAACGCUCAAGGGCAACGCGGGCACCCCGACAGGUGCAAAAACGCACCGACGCCCGGCCGAAGAAGGGGAUUCGACAUGAGGCCCGGAUCCGGC
B2: Ligand B32 (class 3) (ssRNA)
RNA: GGGAGCUCAGAAUAAACGCUCAAAAAGGCACUGACCACCCUCAGGAAGAAUAACCGCGGUCACCCGCAUCCGAGUCUAUCAAUUUCGACAUGAGGCCCGGAUCCGGC
B3: Experiment B class 2 ligand (SEQ 51) (ssRNA)
RNA: GGGAGCUCAGAAUAAACGCUCAAGAACAGGACACCUGGUUCUCAGGACGAGUUUACUAGGGCGGCAAAAAGGGCUCUCGUGGGUUCGACAUGAGGCCCGGAUCCGGC
B4: Ligand B22 (class 3) (ssRNA)
RNA: GGGAGCUCAGAAUAAACGCUCAAAAGGUAAGAAACAGGACACGCACUUAAACAGACGAGUUAACCAUACCUAGAUCGCGGAAUUCGACAUGAGGCCCGGAUCCGGC
B5: Experiment B class 2 ligand (SEQ 53) (ssRNA)
RNA: GGGAGCUCAGAAUAAACGCUCAAAAACAGGACACCAUGAAAAUGGACGAGUUCACUAGAGCGUUGAGCUGUGCGCCCGUGGAUUCGACAUGAGGCCCGGAUCCGGC
B6: Experiment B class 2 ligand (SEQ 54) (ssRNA)
RNA: GGGAGCUCAGAAUAAACGCUCAAAAACAGGACACCAAGAUUAUUGGACGAGUUUACUAGGGCGAUUAAUGGGCUCGCGAUGAUUCGACAUGAGGCCCGGAUCCGGC
B7: Ligand B23 (class 3) (ssRNA)
RNA: GGGAGCUCAGAAUAAACGCUCAAGCUCAAGGCAGAAACAGGACACACCAAGACGAGUUAACCAGCCCAGCUUGACCAUACAUUCGACAUGAGGCCCGGAUCCGGC
B8: Experiment B class 2 ligand (SEQ 49) (ssRNA)
RNA: GGGAGCUCAGAAUAAACGCUCAAUAACAGGACACCAUGAUUAAUGGACGAGUUCACUAGGGCGGUUAAAAGAGCUCUCGAGGAUUCGACAUGAGGCCCGGAUCCGGC
B9: Experiment B class 2 ligand (SEQ 55) (ssRNA)
RNA: GGGAGCUCAGAAUAAACGCUCAAAACAGGACACCUUGAAUAAAGGACGAGUUUACUGUGCGUUUAGUAGAGAACCCGGGAUUCGACAUGAGGCCCGGAUCCGGC
B10: Experiment B class 2 ligand (SEQ 50) (ssRNA)
RNA: GGGAGCUCAGAAUAAACGCUCAAGAACAGGACACCAAGAUAAUUGGACGAGUUUACUAGGGCGGCUAUGCUGGCUCUCGAGGAUUCGACAUGAGGCCCGGAUCCGGC
B11: Experiment B class 2 ligand (SEQ 48) (ssRNA)
RNA: GGGAGCUCAGAAUAAACGCUCAAAAAACAGGACACCAUGAUAAAUGGACGAGUUCACUGGAGCGUCUAAAAGGGCACCCUUGGAUUCGACAUGAGGCCCGGAUCCGGC
B12: Experiment B class 2 ligand (SEQ 52) (ssRNA)
RNA: GGGAGCUCAGAAUAAACGCUCAAAAACAGGACACCAAUUUUAUUGGACGAGUUUACUAGGGCGGUAUUAUGGGCUCGCGAGGAUUCGACAUGAGGCCCGGAUCCGGC
B13: Ligand B28 (ssRNA)
RNA: GGGAGCUCAGAAUAAACGCUCAACUUCCAAGGCAGUGGAAACCCUAAGGUCAAUAAUGACCAAUGACGCCGCUCCGGUUCAACCUUCGACAUGAGGCCCGGAUCCGGC

Assays:
[1] = biological target: T1, Substance P (SP); conditions: equilibrium dialysis rough estimate, 20 uM RNA, fraction bound 0.017
[2] = biological target: T2, Substance P (SP); assay: equilibrium dialysis, five-point curve; earlier estimate 14 uM; SP binding buffer, room temp; conditions: protein: synthetic; tags: free synthetic peptide, C-terminal amide, Sigma (3H-SP from NEN as tracer)
Protocol: (§1) Equilibrium dialysis. Equilibrium dialysis experiments were performed with a Spectra/Por® (Spectrum; Houston, Tex.) equilibrium dialyzer, Spectra/Por® (Spectrum; Houston, Tex.) microcell dialysis chambers (200-μl chamber volumes), and 12000–14000 MWCO dialysis membranes (Spectrum; Houston, Tex.). These membranes allow passage of SP but not 107-nt RNAs. Sample volumes were 200 μl on each side of the membrane (i.e., 200 μl per chamber). All experiments were at room temperature in 1X SP binding buffer. RNAs (unlabeled) were denatured prior to re-equilibration in binding buffer as described above for Experiment B. For binding curves (FIG. 4), RNA concentrations between 50 nM and 20 μM were utilized. […] For binding competition experiments (FIGS. 6 and 7), equal concentrations of the competing peptide were applied to each side of the membrane at the start of dialysis. The dialysis cells were rotated at 10 rpm to shorten the time required to reach equilibrium. […] Following equilibration, samples were withdrawn from the dialysis chambers, added to scintillation fluid, and counted.

[3] = biological target: T2, Substance P (SP); assay: single-point equilibrium dialysis; exception to the >2 uM statement, exact value only in figure; conditions: protein: synthetic; tags: free synthetic peptide, C-terminal amide, Sigma (3H-SP from NEN as tracer)
Protocol: (§2) Binding reactions consisted of 20 nM ^3H-SP (P_o) and either 0.2 µM RNA (a) or 1.0 µM RNA (b). ND=not determined.
as §1

[4] = biological target: T2, Substance P (SP); assay: single-point equilibrium dialysis; stated for all class 2; conditions: protein: synthetic; tags: free synthetic peptide, C-terminal amide, Sigma (3H-SP from NEN as tracer)
Protocol: as §2, §1

[5] = biological target: T2, Substance P (SP); assay: single-point equilibrium dialysis; conditions: protein: synthetic; tags: free synthetic peptide, C-terminal amide, Sigma (3H-SP from NEN as tracer)
Protocol: as §2, §1

[6] = biological target: T3, Reverse-orientation substance P (rSP); assay: competition; poor competitor of 3H-SP up to 100 uM; 1.6 uM RNA, 1.6 uM SP; conditions: protein: synthetic; tags: synthetic peptide
Protocol: as §1, with “These” for “Equilibrium dialysis. Equilibrium dialysis experiments were performed with a Spectra/Por® (Spectrum; Houston, Tex.) equilibrium dialyzer, Spectra/Por® (Spectrum; Houston, Tex.) microcell dialysis chambers (200-μl chamber volumes), and 12000–14000 MWCO dialysis membranes (Spectrum; Houston, Tex.). These”

[7] = biological target: T2, Substance P (SP); assay: equilibrium dialysis, five-point curve; single-point screen gave 170 nM; 10 mM HEPES pH 7.0, 150 mM NaCl, 5 mM KCl, 5 mM CaCl2, room temp; conditions: protein: synthetic; tags: free synthetic peptide, C-terminal amide, Sigma (3H-SP from NEN as tracer)
Protocol: as §1

[8] = biological target: T4, Substance P fragment 2-11; assay: competition; unable to compete at 32 uM (20-fold excess over SP); conditions: protein: synthetic; tags: synthetic peptide, Sigma
Protocol: as §1

Molecule | Kd [4] [µM] | further results
GGGAGCUCAGAAUAAACGCUCAANNNNNNNNNNNNNNNNNNNNNNNNNNNNNNNNNNNNNNNNNNNNNNNNNNNNNNNNNNNNUUCGACAUGAGGCCCGGAUCCGGC [Unselected random 60N RNA pool] |  | Kd [1]: 1200 µM
B1 |  | Kd [2]: 5.8 µM
B2 |  | Kd [3]: < 2 µM
B3 | > 2 | 
B4 |  | Kd [5]: > 2 µM
B5 | > 2 | 
B6 | > 2 | 
B7 |  | Kd [5]: > 2 µM
B8 | > 2 | 
B9 | > 2 | 
B10 | > 2 | 
B11 | > 2 | 
B12 | > 2 | 
B13 |  | binding result [6]: no binding; Kd [7]: 0.19 µM; binding result [8]: no binding
